{"source": "paper PMC6539845", "about": "(International Journal of Molecular Sciences, 2019)", "key": {"[1]": {"target": "the molecule itself", "experiment": "native MS; single proteins, 5–20 μM monomers, 150 mM ammonium acetate (pH 6.8–8.0), nanoflow electrospray"}, "[2]": {"target": "T1, human proteasome α7 subunit, wild type (human, UniProt P25788 1-255)", "T1 construct": "proteasome subunit α7 (PSMA3), human, residues 1-255; wild-type construct in pRSFDuet-1; also called PSMA3; α7 homotetradecamer; copies: 14", "T1 sequence (P25788 whole entry, the tested form may be a part)": "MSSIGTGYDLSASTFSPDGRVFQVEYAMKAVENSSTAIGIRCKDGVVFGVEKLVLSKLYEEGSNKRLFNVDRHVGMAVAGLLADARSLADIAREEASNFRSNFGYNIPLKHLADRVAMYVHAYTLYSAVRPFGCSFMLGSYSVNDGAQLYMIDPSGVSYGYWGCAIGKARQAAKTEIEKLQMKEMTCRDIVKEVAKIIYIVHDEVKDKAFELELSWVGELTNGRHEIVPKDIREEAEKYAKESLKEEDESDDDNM", "experiment": "native MS; α4 or α6 (4 μM monomers) mixed with α7 (2 μM tetradecamer), 20 °C, 1 h, 150 mM ammonium acetate", "details": "both partners purified"}}, "note": "Several values for one entry are separate records, joined by “and”; a condition that tells them apart may be missing. Identical values can stand only once."}
{"binder": "human proteasome α5 subunit (natural protein, UniProt P28066 1-241, looked up, proteasome subunit α5 (PSMA5), human, residues 1-241; the vector holds a TEV protease cleavage site preceding the gene; also called PSMA5) MFLTRSEYDRGVNTFSPEGRLFQVEYAIEAIKLGSTAIGIQTSEGVCLAVEKRITSPLMEPSSIEKIVEIDAHIGCAMSGLIADAKTLIDKARVETQNHWFTYNETMTVESVTQAVSNLALQFGEEDADPGAMSRPFGVALLFGGVDEKGPQLFHMDPSGTFVQCDARAIGSASEGAQSSLQEVYHKSMTLKEAIKSSLIILKQVMEEKLNATNIELATVQPGQNFHMFTKEELEEVIKDI", "values": [{"measurement": "stoichiometry N", "setting": "[1]", "value": 2}]}
{"binder": "human proteasome α2 subunit (natural protein, UniProt P25787 1-234, looked up, proteasome subunit α2 (PSMA2), human, residues 1-234; subcloned into the NdeI and XhoI sites of pRSFDuet-1; no tag is named; also called PSMA2) MAERGYSFSLTTFSPSGKLVQIEYALAAVAGGAPSVGIKAANGVVLATEKKQKSILYDERSVHKVEPITKHIGLVYSGMGPDYRVLVHRARKLAQQYYLVYQEPIPTAQLVQRVASVMQEYTQSGGVRPFGVSLLICGWNEGRPYLFQSDPSGAYFAWKATAMGKNYVNGKTFLEKRYNEDLELEDAIHTAILTLKESFEGQMTEDNIEVGICNEAGFRRLTPTEVKDYLAAIA", "values": [{"measurement": "stoichiometry N", "setting": "[1]", "value": 2}]}
{"binder": "human proteasome α4 subunit (natural protein, UniProt O14818 1-248, looked up, proteasome subunit α4 (PSMA7), human, residues 1-248; subcloned into the NdeI and SalI sites of pET28b; also called PSMA7) MSYDRAITVFSPDGHLFQVEYAQEAVKKGSTAVGVRGRDIVVLGVEKKSVAKLQDERTVRKICALDDNVCMAFAGLTADARIVINRARVECQSHRLTVEDPVTVEYITRYIASLKQRYTQSNGRRPFGISALIVGFDFDGTPRLYQTDPSGTYHAWKANAIGRGAKSVREFLEKNYTDEAIETDDLTIKLVIKALLEVVQSGGKNIELAVMRRDQSLKILNPEEIEKYVAEIEKEKEENEKKKQKKAS", "values": [{"measurement": "stoichiometry N", "setting": "[1]", "value": 2}, {"measurement": "stoichiometry N", "setting": "[2]", "value": "7 α7 subunits per α4 and 14 α7 subunits per α4"}]}
{"binder": "human proteasome α1 subunit (natural protein, proteasome subunit α1 (PSMA6), human, residues 1-246; subcloned into the NdeI and SalI sites of pET28b; also called PSMA6) not shown", "values": [{"measurement": "stoichiometry N", "setting": "[1]", "value": 2}]}
{"binder": "human proteasome α3 subunit (natural protein, UniProt P25789 1-261, looked up, proteasome subunit α3 (PSMA4), human, residues 1-261; the vector holds a TEV protease cleavage site preceding the gene; also called PSMA4) MSRRYDSRTTIFSPEGRLYQVEYAMEAIGHAGTCLGILANDGVLLAAERRNIHKLLDEVFFSEKIYKLNEDMACSVAGITSDANVLTNELRLIAQRYLLQYQEPIPCEQLVTALCDIKQAYTQFGGKRPFGVSLLYIGWDKHYGFQLYQSDPSGNYGGWKATCIGNNSAAAVSMLKQDYKEGEMTLKSALALAIKVLNKTMDVSKLSAEKVEIATLTRENGKTVIRVLKQKEVEQLIKKHEEEEAKAEREKKEKEQKEKDK", "values": [{"measurement": "stoichiometry N", "setting": "[1]", "value": 2}]}
